Values of other authors as cited in article PMC6691393.

Target: Survivin BIR (Homo sapiens) (UniProt O15392)
Sequence of UniProt O15392 (O15392 15-91): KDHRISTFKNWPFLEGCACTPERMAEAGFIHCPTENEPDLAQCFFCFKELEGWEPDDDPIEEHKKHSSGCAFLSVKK

SMAC/Diablo N-terminal peptide (from UniProt Q9NR28)
Kd: 121 µM
